T1: human CLDN18.2 (human, UniProt P56856-2 1-261)
T1 construct: whole, on cells; also called CLDN18.2 wild-type
T1 sequence (looked up): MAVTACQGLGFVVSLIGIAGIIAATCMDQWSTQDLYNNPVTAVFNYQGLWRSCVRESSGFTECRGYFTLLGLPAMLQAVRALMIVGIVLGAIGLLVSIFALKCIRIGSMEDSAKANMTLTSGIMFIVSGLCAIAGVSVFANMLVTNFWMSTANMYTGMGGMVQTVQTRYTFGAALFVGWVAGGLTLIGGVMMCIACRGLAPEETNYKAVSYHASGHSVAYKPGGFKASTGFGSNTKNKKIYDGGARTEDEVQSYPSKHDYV

T2: mouse CLDN18.2 (mouse, UniProt P56857-3 1-264)
T2 construct: whole, on cells; also called murine CLDN18.2; mCLDN18.2
T2 sequence (looked up): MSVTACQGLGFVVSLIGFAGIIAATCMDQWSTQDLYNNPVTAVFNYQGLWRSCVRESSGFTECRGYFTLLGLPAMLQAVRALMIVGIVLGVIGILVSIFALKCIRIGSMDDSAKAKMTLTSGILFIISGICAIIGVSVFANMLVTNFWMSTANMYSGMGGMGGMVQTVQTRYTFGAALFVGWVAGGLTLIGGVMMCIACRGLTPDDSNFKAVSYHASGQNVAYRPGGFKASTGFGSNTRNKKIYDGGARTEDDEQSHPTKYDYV

B1: ZP1I16_D05 IgG1 (antibody, V domains shown)
VH: QVQLVQSGAEVKKPGSSVKVSCKASGGTFSSYAISWVRQAPGQGLEWMGGIIPIFGTANYAQKFQGRVTITADESTSTAYMELSSLRSEDTAVYYCARGFIRYGVFDYWGQGTLVTVSS
VL: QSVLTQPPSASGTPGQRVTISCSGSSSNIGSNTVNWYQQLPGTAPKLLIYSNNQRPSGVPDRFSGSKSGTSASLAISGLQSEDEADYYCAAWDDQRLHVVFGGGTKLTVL
notes: Tested as IgG1 with lambda light chain (pOE-IgG1 (λLC))
B2: 008LY1_D04 IgG1 (antibody, V domains shown)
VH: QVQLVQSGAEVKKPGSSVKVSCKASGGTFSSYAISWVRQAPGQGLEWMGGIIPIFGTANYAQKFQGRVTITADESTSTAYMELSSLRSEDTAVYYCARGYVQYGYFDYWGQGTLVTVSS
VL: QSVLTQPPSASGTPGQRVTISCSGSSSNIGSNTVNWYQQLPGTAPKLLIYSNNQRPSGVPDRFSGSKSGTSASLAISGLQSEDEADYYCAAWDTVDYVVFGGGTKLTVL
notes: as for B1
B3: 008M0G_G03 IgG1 (antibody, V domains shown)
VH: QVQLVQSGAEVKKPGSSVKVSCKASGGTFSSYAISWVRQAPGQGLEWMGGIIPIFGTANYAQKFQGRVTITADESTSTAYMELSSLRSEDTAVYYCARGYPRYGVFDYWGQGTLVTVSS
VL: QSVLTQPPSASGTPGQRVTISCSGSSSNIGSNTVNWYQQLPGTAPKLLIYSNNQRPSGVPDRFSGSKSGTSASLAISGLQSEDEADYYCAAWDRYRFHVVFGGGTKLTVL
notes: as for B1
B4: ZP1I18_B08 IgG1 (antibody, V domains shown)
VH: QVQLVQSGAEVKKPGSSVKVSCKASGGTFSSYAISWVRQAPGQGLEWMGGIIPIFGTANYAQKFQGRVTITADESTSTAYMELSSLRSEDTAVYYCARGFIRYGVFDYWGQGTLVTVSS
VL: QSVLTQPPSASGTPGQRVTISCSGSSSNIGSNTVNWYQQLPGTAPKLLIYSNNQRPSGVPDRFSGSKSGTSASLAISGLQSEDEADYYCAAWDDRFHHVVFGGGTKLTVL
notes: as for B1
B5: 008LYG_D08 IgG1 (antibody, V domains shown)
VH: QVQLVQSGAEVKKPGSSVKVSCKASGGTFSSYAISWVRQAPGQGLEWMGGIIPIFGTANYAQKFQGRVTITADESTSTAYMELSSLRSEDTAVYYCARGYQGMGVFDPWGQGTLVTVSS
VL: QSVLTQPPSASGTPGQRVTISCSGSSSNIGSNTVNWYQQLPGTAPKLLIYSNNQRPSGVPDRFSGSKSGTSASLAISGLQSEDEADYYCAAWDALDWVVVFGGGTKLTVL
notes: as for B1

Experiments:
human CLDN18.2 [1] = molecular target: T1, human CLDN18.2; assay: flow cytometry, IgG1 (0-533 nM) on HEK293 cells expressing human CLDN18.2
Description: (§1) Purified CLDN18.2 antibodies were then characterized for affinity and cross-reactivity by flow cytometry. Briefly. HEK293 cells expressing human, cynomolgous monkey, rat or mouse CLDN18.2 were resuspended in FACS Buffer, stained with varying antibody concentrations (0-533 nM), washed with FACS Buffer, stained with Alexa Fluor® 647 AffiniPure F(ab′)₂ Fragment Goat Anti-Human IgG, washed with FACS buffer and stained with FACS buffer supplemented with DAPI. Antibody binding to cells was assessed on a FACSymphony (BD) with gates for live/dead cells. Histograms of median fluorescence intensity (MFI) were used to calculate the geometric mean for each antibody at a given concentration (FlowJo, LLC). Geometric means were plotted in Prism (GraphPad) and used to calculated binding EC₅₀. Representative results are shown for 5 antibodies (ZP1I16_D05 IgG1, 008LY1_D04 IgG1, 08LYG_D08 IgG1, 008M0G_G03 IgG1, ZP1I18_B08 IgG1) and 1 negative control antibody (R347 IgG1) although 31 other prospective antibodies were also characterized (Table 1).

human CLDN18.2 [2] = molecular target: T1, human CLDN18.2; assay: flow cytometry on HEK293 cells expressing human CLDN18.2 (FIG. 2A)
Excerpt: FIGS. 2A-2D show CLDN18.2 binding affinity and species cross-reactivity of select leads as determined by flow cytometry measurement in HEK293 cells expressing human (FIG. 2A), cyno (FIG. 2B), rat (FIG. 2C) or mouse (FIG. 2D) CLDN18.2. All leads bind human and cyno CLDN18.2 (99% homology), most leads bind rat CLDN18.2 (90% homology) and only one internal lead binds murine CLDN18.2 (89% homology. R347 is used as a negative control.
as §1

mouse CLDN18.2 = molecular target: T2, mouse CLDN18.2; assay: flow cytometry, IgG1 (0-533 nM) on HEK293 cells expressing mouse CLDN18.2
Description: as §1

| Binder | binding result (human CLDN18.2 [1]) | binding result (human CLDN18.2 [2]) | binding result (mouse CLDN18.2) |
| --- | --- | --- | --- |
| B1 | binds | – | – |
| B2 | – | binds | – |
| B3 | – | binds | – |
| B4 | – | binds | – |
| B5 | – | binds | binds |

From US20240132587A1 (AstraZeneca / MedImmune, published 2024)
